This test deals with T1, Mms4 (S. cerevisiae, UniProt P38257 1-691).
T1 sequence (looked up): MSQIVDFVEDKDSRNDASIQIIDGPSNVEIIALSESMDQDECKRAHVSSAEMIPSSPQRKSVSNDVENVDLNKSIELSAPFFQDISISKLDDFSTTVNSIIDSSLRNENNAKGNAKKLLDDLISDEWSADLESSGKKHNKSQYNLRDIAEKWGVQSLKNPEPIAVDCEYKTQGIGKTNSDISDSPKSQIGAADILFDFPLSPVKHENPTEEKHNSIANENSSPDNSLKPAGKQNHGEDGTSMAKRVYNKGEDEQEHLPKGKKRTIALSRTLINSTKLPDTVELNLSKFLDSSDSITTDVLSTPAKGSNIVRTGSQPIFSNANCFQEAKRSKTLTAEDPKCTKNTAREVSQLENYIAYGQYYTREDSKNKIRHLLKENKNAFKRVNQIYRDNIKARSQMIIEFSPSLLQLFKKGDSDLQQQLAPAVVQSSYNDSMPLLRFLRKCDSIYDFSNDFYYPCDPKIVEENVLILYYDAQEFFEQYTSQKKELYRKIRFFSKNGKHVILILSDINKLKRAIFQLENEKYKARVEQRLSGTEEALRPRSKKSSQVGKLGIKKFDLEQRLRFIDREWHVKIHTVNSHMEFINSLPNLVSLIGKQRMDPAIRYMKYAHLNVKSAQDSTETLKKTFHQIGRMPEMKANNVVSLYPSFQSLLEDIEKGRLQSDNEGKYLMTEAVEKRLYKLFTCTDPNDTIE
Nature of the test: cross-linking.

B1: Mus81 (enzyme, S. cerevisiae, UniProt Q04149 1-632, looked up)
chain: MELSSNLKDLYIEWLQELVDGLTPKQEQLKIAYEKAKRNLQNAEGSFYYPTDLKKVKGIGNTIIKRLDTKLRNYCKIHHISPVEAPSLTQTSSTRPPKRTTTALRSIVNSCENDKNEAPEEKGTKKRKTRKYIPKKRSGGYAILLSLLELNAIPRGVSKEQIIEVAGKYSDHCMTPNFSTKEFYGAWSSIAALKKHSLVLEEGRPKRYSLTEEGVELTKSLKTADGISFPKENEEPNEYSVTRNESSEFTANLTDLRGEYGKEEEPCDINNTSFMLDITFQDLSTPQRLQNNVFKNDRLNSQTNISSHKLEEVSDDQTVPDSALKAKSTIKRRRYNGVSYELWCSGDFEVFPIIDHREIKSQSDREFFSRAFERKGMKSEIRQLALGDIIWVAKNKNTGLQCVLNTIVERKRLDDLALSIRDNRFMEQKNRLEKSGCEHKYYLIEETMSGNIGNMNEALKTALWVILVYYKFSMIRTCNSDETVEKIHALHTVISHHYSQKDLIVIFPSDLKSKDDYKKVLLQFRREFERKGGIECCHNLECFQELMGKGDLKTVGELTIHVLMLVKGISLEKAVAIQEIFPTLNKILMAYKTCSSEEEAKLLMFNVLGDAPGAKKITKSLSEKIYDAFGKL
B1: the binding result is “binds”.

The values are drawn from publication PMC4041439 (Nucleic Acids Research, 2014).
